Laboratory results from publication doi:10.1101/2020.04.03.024018.
pKd: −log10 of the molar value. Read-outs that look alike come from different tables or passages of the source. Values belong to the substance of their own block, whether it stands above or below them.

Tests used:
Experiment in all cases: single-molecule force spectroscopy
[1] = target: C5aR complexed with the PMX53 antagonist (free PMX53 injected) (human) (UniProt P21730)
[2] = target: C5aR D282A mutant (human) (UniProt P21730)
Chain of C5aR D282A mutant (human) (P21730 whole entry D282A): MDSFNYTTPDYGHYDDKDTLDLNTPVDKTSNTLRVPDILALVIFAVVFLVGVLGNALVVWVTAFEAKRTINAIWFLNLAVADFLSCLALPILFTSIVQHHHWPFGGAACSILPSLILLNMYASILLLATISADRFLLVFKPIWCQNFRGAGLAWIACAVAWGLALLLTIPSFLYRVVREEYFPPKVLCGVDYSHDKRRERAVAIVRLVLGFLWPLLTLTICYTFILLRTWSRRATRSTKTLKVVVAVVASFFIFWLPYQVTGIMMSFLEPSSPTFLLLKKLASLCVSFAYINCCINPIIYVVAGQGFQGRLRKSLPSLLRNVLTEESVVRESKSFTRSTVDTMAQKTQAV

[3] = target: C5a anaphylatoxin chemotactic receptor 1 (C5aR), wild type (human) (UniProt P21730)
Chain of C5a anaphylatoxin chemotactic receptor 1 (C5aR), wild type (human) (P21730 whole entry): as the sequence (P21730 whole entry D282A) above, with A282D counted along it

[4] = target: C5aR R175V/Y258V double mutant (human) (UniProt P21730)
Chain of C5aR R175V/Y258V double mutant (human) (P21730 whole entry R175V/Y258V): as the sequence (P21730 whole entry D282A) above, with R175V, Y258V, A282D counted along it

[5] = target: C5aR complexed with the PMX53 antagonist (free PMX53 injected) (human) (UniProt P21730); remark: listed apart in the source

Chain of complement C5a anaphylatoxin (P01031 678-751): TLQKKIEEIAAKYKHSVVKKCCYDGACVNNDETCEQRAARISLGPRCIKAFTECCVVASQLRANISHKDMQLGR
Chain of C5aR complexed with the PMX53 antagonist (free PMX53 injected) (human) (P21730 whole entry, looked up, one chain of several): as the sequence (P21730 whole entry D282A) above, with A282D counted along it

residence time τ0.5 [1]: 0.5 ms
Substance: C5a des-Arg (ligand)

Substance: Cys-Gly3-Phe-[{Orn}-Pro-{D-Cha}-Trp-Arg] (PMX53-Gly3-Cys), PMX53 antagonist as tethered to the AFM tip (peptide)
residence time [2]: 0.1 ms
pKd [3]: 8.33
equilibrium force Feq [3]: 50 pN
reduction in residence time against C5aR WT [4]: 40%

Substance: complement C5a anaphylatoxin (from UniProt P01031 678-751) (ligand)
equilibrium force Feq [5]: 23 pN
pKd [1]: 0.10
equilibrium force Feq [1]: 23 pN
residence time τ0.5 [1]: 0.2 ms
